The values below come from article PMC12657230.

In this experiment the target is ECOR31 mCpol (minimal CRISPR polymerase) with residual ENLYFQ cleavage site (E. coli ECOR31). In words: SEC; HiLoad 16/600 Superdex 200 pg, 20 mM Tris-HCl pH 8.0, 500 mM KCl, 10% glycerol, 1 mM TCEP; elution compared with a molecular weight standard.

On to “ECOR31 mCpol (minimal CRISPR polymerase) with residual ENLYFQ cleavage site (enzyme)”, for which the stoichiometry N (usually a count of units in the complex or per binding partner) is 2.
